Results from paper PMC8160069, “Ethacrynic acid targets GSTM1 to ameliorate obesity by promoting browning of white adipocytes” (Protein & Cell, 2020).

Target: the molecule itself
Assay: crystal structure; co-crystal structure of celastrol with mouse GSTP1

B1: mouse GSTP1 (enzyme, UniProt P19157 1-210, looked up)
chain: MPPYTIVYFPVRGRCEAMRMLLADQGQSWKEEVVTIDTWMQGLLKPTCLYGQLPKFEDGDLTLYQSNAILRHLGRSLGLYGKNQREAAQMDMVNDGVEDLRGKYVTLIYTNYENGKNDYVKALPGHLKPFETLLSQNQGGKAFIVGDQISFADYNLLDLLLIHQVLAPGCLDNFPLLSAYVARLSARPKIKAFLSSPEHVNRPINGNGKQ
notes: GSTP1 (glutathione S-transferase pi 1), mouse; co-crystallised with celastrol; also called GST pi
Q: Does B1 bind?
A: Result: binds
